Blank lines part the entries; values can stand above or below the binder they belong to.
Assays:
[1] = molecular target: human complement protein C5 (human, UniProt P01031 19-673; P01031 678-1676); experiment: ELISA, C5-coated wells
Description: The 20 purified antibodies were tested by ELISA for their abilities to bind human complement proteins C5, C5b6 and C6. The antibodies were divided into two sets for this analysis. MoC601 HuG4K and HuG4K isotype controls were included alongside each set, as was C601HFKC4 HuG4K (aka 3713) expression supernatant from the original transfection as an additional positive control. In addition, three humanized antibodies (C601HFKC4 HuG4K, C601HPKI HuG4K and C601HPKC4 HuG4K) were included within both sets to allow better comparison between the plates. The antibodies all show specificity for C6 with no detectable binding to C5. All humanized antibodies bind to C6 and to C6 as part of the C5b6 complex. The lower plateaus of the C5b6 complex binding curves are explained by less C6 protein being available for binding when wells are coated with C5b6 complex as opposed to C6 alone. […] The EC₅₀ values are included in the figure but slightly different plateau levels observed for the antibodies are influencing the apparent EC₅₀ values. However, it was noted that the EC₅₀ values tended to be lower on the plates for the second set of antibodies. For this reason, a subset of the 20 antibodies was tested in a further ELISA for binding to C6 and C5b6 complex.
(§1) Binding ELISAs used Nunc Maxisorp 384-well plates, wells coated with C6, C5b,6 complex or C5 (Complement Technology Inc, TX) and goat anti-human IgG (Fab specific) peroxidase secondary antibodies (Sigma-Aldrich, A0293) for detection. For the thermal stability assay, IgG supernatants were diluted to their EC₈₀ concentration, incubated at different temperatures for 10 min and C6 binding measured by ELISA with the binding signal plotted against temperature. Kinetics of C6 binding were measured by capturing antibodies from supernatant samples using Protein G biosensors and performing a 20 min association step with 2.5 nM C6 and a 20 min dissociation step using the Octet RED96. Precise kinetic measurements were obtained by surface plasmon resonance (Biacore 8K, Cytiva). The IgG were captured on a protein G sensor chip. Binding of C6 measured using a three-fold concentration series of C6 from 0.03 nM-25 nM and data were fitted using a 1:1 model in two independent experiments.

[2] = molecular target: T1, human complement protein C6 (human, UniProt P13671 22-934); experiment: ELISA, C6-coated wells, large-scale purified antibody
T1 construct: also called human C6; C6 antigen
T1 sequence (P13671 22-934 limits assumed): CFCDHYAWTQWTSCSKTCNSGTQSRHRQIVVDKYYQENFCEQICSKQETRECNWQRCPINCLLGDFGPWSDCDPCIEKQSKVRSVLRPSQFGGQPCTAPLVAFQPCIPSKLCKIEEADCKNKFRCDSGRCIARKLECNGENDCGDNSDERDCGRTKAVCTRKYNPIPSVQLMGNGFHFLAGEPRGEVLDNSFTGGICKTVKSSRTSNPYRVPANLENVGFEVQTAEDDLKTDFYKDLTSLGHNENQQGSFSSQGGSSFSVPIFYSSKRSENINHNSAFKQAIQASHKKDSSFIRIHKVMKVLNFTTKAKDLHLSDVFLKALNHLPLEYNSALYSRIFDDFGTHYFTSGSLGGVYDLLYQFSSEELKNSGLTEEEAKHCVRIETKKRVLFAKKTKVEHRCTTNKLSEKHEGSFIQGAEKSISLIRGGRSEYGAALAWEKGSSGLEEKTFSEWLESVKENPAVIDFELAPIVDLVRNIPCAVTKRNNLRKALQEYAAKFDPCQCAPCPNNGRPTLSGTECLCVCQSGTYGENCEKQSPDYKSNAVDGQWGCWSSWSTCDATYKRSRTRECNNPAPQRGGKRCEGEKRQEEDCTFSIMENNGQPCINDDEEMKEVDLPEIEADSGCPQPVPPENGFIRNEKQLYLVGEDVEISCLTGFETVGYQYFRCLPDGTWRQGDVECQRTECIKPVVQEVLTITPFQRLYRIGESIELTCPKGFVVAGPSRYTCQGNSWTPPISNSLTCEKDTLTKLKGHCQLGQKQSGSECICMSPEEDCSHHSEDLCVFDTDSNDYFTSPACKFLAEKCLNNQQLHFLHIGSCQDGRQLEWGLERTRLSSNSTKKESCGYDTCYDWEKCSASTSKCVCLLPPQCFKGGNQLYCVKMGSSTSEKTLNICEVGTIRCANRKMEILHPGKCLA

[3] = molecular target: T1, human complement protein C6; experiment: ELISA, C6-coated wells
[4] = molecular target: T1, human complement protein C6; experiment: SPR (Biacore 8K)
Description: (§2) The kinetics of C6 binding was compared for the purified chimeric and lead humanized C601 using surface plasmon resonance (SPR, Biacore 8K). IgG were captured on a protein G sensor chip and binding of C6 measured using a three-fold concentration series of C6 from 0.03 nM-25 nM (FIG. 5). In a second experiment, a two-fold concentration series from 0.31 nM-20 nM C6 was used (FIG. 6). For all antibodies, binding of C6 occurred in a concentration-dependent manner and data could be fitted using a 1:1 model to calculate the association rate (kₒₙ), dissociation rates (kd) and affinity constant (KD). The kinetic data are shown in Table 5, which indicates only small differences between the parameters determined from the two independent experiments.
Binding ELISAs used Nunc Maxisorp 384-well plates, wells coated with C6, C5b,6 complex or C5 (Complement Technology Inc, TX) and goat anti-human IgG (Fab specific) peroxidase secondary antibodies (Sigma-Aldrich, A0293) for detection. For the thermal stability assay, IgG supernatants were diluted to their EC₈₀ concentration, incubated at different temperatures for 10 min and C6 binding measured by ELISA with the binding signal plotted against temperature. […] Binding of C6 measured using a three-fold concentration series of C6 from 0.03 nM-25 nM and data were fitted using a 1:1 model in two independent experiments.

[5] = molecular target: T1, human complement protein C6; experiment: SPR (Biacore 8K), IgG on protein G chip, C6 0.03-25 nM 3-fold series, 1:1 fit
Description: as §2, §1

[6] = molecular target: T1, human complement protein C6; experiment: SPR (Biacore 8K); remark: listed apart in the source
Description: as §2, §1

[7] = molecular target: T1, human complement protein C6; experiment: C6-binding ELISA, A650 nm; sample 'PBS, non-incubated' (kept at 4 C)
Description: The C6-binding ELISA was then used to compare the binding abilities of the C601 antibodies that had been incubated in the 3 different sera to antibody samples that were incubated in PBS at 37 C or kept at 4 C (non-incubated).
as §1, with “Precise kinetic measurements were obtained by surface plasmon resonance (Biacore 8K, Cytiva). The IgG were captured on a protein G sensor chip.” left out
The Uncle instrument (Unchained Labs) was used to monitor unfolding via intrinsic fluorescence and aggregation by static light scattering across a temperature gradient to obtain melting temperatures (Tₘ). […] Isoelectric points were determined by capillary isoelectric focusing using a PA800+ (Beckman Coulter).

[8] = molecular target: T1, human complement protein C6; experiment: SPR (Biacore 8K), IgG on protein G chip, C6 0.31-20 nM 2-fold series, 1:1 fit
Description: as §2

[9] = molecular target: T1, human complement protein C6; experiment: BLI (Octet), antibody on Protein G biosensors, 1:1 fit, experiment 2
[10] = molecular target: T1, human complement protein C6; experiment: BLI (Octet), antibody on Protein G biosensors, 1:1 fit, experiment 1

Chain of human complement protein C5 (P01031 19-673 limits assumed, chain 1 of 2): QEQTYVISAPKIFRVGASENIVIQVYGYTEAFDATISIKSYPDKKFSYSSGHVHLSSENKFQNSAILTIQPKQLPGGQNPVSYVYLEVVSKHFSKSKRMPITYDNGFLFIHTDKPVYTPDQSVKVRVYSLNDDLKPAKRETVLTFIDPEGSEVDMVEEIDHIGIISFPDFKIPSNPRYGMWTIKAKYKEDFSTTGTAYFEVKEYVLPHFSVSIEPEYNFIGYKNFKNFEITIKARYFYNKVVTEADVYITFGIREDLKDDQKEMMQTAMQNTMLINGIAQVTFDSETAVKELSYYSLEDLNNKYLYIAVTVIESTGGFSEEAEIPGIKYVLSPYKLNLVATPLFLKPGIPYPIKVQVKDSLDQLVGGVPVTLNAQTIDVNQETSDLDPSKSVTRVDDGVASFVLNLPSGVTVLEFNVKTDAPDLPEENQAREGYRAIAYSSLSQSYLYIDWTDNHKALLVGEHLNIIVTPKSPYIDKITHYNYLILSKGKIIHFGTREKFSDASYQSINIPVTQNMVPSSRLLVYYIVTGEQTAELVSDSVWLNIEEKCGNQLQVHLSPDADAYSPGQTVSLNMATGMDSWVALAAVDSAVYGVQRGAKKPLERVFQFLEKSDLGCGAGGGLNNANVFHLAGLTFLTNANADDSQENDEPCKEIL
Chain of human complement protein C5 (P01031 678-1676 limits assumed, chain 2 of 2): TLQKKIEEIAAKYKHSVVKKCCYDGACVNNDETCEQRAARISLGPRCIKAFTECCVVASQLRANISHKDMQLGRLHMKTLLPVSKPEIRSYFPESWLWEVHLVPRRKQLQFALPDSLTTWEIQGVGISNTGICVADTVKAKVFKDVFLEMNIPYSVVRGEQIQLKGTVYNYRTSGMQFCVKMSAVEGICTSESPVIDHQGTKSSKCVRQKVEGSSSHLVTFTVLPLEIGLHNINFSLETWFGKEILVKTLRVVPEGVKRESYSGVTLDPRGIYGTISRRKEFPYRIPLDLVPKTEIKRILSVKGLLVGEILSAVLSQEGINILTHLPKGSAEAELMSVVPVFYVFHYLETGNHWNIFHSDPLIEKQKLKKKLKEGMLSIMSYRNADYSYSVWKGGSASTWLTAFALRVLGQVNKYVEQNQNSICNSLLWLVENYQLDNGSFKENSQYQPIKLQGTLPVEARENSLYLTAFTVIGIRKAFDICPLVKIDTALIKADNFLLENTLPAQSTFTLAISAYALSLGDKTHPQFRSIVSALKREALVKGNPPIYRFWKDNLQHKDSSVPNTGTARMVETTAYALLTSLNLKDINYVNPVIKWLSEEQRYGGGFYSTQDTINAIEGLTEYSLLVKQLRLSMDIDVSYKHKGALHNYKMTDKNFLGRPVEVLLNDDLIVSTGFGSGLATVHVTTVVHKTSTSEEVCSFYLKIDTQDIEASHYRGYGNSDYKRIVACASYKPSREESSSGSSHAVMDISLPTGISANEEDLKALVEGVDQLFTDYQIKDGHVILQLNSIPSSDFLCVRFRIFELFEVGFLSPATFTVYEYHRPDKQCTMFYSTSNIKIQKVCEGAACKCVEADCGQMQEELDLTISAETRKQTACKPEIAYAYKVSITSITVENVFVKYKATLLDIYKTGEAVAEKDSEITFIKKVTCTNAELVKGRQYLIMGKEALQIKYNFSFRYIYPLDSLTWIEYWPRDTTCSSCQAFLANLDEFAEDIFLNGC

binding result [1]: no binding | EC50 [2]: 0.19 nM | EC50 [3]: 0.19 nM | Kd [4]: 0.343 nM | Kd [5]: 0.343 nM | koff [5]: 0.000389 s⁻¹ | kon [5]: 1.13e+06 M⁻¹ s⁻¹ | Kd [6]: 0.343 nM | EC50 [7]: 0.17 nM | Kd [8]: 0.226 nM | koff [8]: 0.000306 s⁻¹ | kon [8]: 1.36e+06 M⁻¹ s⁻¹
B1: C601HFKC4 HuG4K (antibody, human IgG4 S228P, kappa)
heavy: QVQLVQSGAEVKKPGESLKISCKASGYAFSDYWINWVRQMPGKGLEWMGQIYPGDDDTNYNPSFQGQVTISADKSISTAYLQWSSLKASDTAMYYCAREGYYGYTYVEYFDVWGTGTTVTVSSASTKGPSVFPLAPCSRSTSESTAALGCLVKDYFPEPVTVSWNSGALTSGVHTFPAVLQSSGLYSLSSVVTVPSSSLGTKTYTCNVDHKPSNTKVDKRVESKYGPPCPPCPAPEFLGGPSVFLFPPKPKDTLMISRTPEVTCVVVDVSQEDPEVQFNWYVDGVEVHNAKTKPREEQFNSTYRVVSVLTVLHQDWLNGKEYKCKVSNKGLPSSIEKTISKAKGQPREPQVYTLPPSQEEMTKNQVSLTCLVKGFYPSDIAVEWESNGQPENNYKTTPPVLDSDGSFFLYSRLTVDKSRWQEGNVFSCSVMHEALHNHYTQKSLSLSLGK
light: QIVLTQSPATLSLSPGERATLSCRASSSVSYLHWYQQKPGQSPRLWIYDTSKRATGIPARFSGSGSGTDYTLTISSLEPEDFAVYYCQQWTSNPLTFGQGTKLEIKRTVAAPSVFIFPPSDEQLKSGTASVVCLLNNFYPREAKVQWKVDNALQSGNSQESVTEQDSKDSTYSLSSTLTLSKADYEKHKVYACEVTHQGLSSPVTKSFNRGEC
notes: also called 3713; clone 3713

Kd [9]: 0.35 nM | koff [9]: 0.00024 s⁻¹ | kon [9]: 690000 M⁻¹ s⁻¹ | EC50 [3]: 0.2 nM | Kd [4]: 0.527 nM | Kd [10]: 0.36 nM | koff [10]: 0.00025 s⁻¹ | kon [10]: 690000 M⁻¹ s⁻¹ | Kd [5]: 0.527 nM | koff [5]: 0.000448 s⁻¹ | kon [5]: 850000 M⁻¹ s⁻¹ | Kd [6]: 0.527 nM | Kd [8]: 0.459 nM | koff [8]: 0.000413 s⁻¹ | kon [8]: 900000 M⁻¹ s⁻¹
B2: MoC601 HuG4K (chimeric C601 antibody) (antibody, human IgG4 S228P, kappa, V domains shown)
VH: QVQLQQSGAELVKPGASVKISCKASGYAFSDYWMNWVKQRPGKGLEWIGQIYPGDDDTNYNGKFKGKATLTADKSSSTAYMQLSSLTSEDSAVYFCAREGYYGYTYVEYFDVWGTGTTVTVSS
VL: QIVLTQSPAIMSVSPGEKVTLTCSASSSVSYMHWYQQKSGTSPKRWIYDTSKLASGVPARFSGSGSGTSYSLTISSMEAEDAATYYCQQWTSNPLTFGAGTKLELRR
notes: also called chimeric antibody; chimeric 1C9

Reference: patent US20260125455A1 (CLEVELAND CLINIC FOUNDATION, published 2026)
